{"source": "patent US20100036095A1", "binders": {"B1": {"name": "CR2-CD59 fusion protein containing CD59 T51A/S20A (protein)", "chain": "ISCGSPPPILNGRISYYSTPIAVGTVIRYSCSGTFRLIGEKSLLCITKDKVDGTWDKPAPKCEYFNKYSSCPEPIVPGGYKIRGSTPYRHGDSVTFACKTNFSMNGNKSVWCQANNMWGPTRLPTCVSVFPLECPALPMIHNGHHTSENVGSIAPGLSVTYSCESGYLLVGEKIINCLSSGKWSAVPPTCEEARCKSLGRFPNGKVKEPPILRVGVTANFFCDEGYRLQGPPSSRCVIAGQGVAWTKMPVCSGGGGSLQCYNCPNPTADCKTAVNCSADFDACLITKAGLQVYNKCWKFEHCNFNDVATRLRENELTYYCCKKDLCNFNEQLEN"}}, "target": "C8/C9 (complement components C8 and C9 of normal human serum, in the assembling membrane attack complex) (human), P07357", "sequence (P07357 31-584 limits assumed, chain 1 of 4)": "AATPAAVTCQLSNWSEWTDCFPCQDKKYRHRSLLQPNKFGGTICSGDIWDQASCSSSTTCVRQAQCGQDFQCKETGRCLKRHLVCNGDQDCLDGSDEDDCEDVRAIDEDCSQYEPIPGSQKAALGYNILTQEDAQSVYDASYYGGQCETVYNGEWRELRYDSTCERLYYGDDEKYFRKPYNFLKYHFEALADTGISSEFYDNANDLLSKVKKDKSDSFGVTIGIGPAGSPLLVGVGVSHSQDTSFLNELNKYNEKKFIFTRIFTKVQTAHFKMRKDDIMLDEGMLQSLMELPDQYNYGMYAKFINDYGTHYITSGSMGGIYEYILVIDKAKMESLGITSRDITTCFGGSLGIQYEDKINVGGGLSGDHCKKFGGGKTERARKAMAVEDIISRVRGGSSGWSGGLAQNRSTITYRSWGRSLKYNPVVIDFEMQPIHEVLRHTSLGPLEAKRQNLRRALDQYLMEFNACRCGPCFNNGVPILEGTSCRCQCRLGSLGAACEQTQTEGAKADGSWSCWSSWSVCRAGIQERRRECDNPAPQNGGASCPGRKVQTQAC", "sequence (P07358 55-591 limits assumed, chain 2 of 4, further chain)": "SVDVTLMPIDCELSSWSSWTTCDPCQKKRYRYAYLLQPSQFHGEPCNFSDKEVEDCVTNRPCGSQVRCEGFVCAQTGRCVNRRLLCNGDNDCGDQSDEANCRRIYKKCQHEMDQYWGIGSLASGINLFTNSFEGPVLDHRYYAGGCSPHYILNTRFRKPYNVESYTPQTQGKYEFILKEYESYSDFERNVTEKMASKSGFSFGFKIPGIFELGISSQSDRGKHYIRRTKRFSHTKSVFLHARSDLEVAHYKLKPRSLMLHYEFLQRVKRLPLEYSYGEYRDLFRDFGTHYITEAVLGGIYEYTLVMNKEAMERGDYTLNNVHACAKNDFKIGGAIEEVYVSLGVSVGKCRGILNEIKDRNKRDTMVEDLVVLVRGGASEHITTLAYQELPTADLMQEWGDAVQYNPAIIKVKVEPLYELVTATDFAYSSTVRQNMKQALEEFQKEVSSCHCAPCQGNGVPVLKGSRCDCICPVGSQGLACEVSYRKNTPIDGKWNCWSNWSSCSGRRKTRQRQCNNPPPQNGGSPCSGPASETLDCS", "sequence (P07360 21-202 limits assumed, chain 3 of 4, further chain)": "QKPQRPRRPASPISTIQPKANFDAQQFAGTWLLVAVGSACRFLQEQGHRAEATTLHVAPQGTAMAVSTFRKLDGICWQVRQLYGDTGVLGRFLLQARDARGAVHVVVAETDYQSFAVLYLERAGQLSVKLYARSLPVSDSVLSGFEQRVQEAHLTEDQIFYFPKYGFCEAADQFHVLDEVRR", "sequence (P02748 22-559 limits assumed, chain 4 of 4, further chain)": "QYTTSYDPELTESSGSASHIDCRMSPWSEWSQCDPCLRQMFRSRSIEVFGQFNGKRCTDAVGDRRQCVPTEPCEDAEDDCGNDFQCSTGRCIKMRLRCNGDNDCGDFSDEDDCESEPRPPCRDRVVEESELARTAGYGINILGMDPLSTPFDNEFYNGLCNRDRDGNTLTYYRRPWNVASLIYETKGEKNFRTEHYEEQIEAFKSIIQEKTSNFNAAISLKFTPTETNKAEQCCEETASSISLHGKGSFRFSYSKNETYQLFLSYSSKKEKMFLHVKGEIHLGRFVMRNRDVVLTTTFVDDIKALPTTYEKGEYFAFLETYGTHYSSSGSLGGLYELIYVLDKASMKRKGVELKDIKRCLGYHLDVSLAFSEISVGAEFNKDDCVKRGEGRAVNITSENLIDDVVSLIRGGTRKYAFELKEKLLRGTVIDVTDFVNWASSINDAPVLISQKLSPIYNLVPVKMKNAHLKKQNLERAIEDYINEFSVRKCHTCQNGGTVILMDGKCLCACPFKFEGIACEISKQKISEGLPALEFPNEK", "assay": "cell-based or functional assay"}
{"binder": "B1", "values": [{"measurement": "inhibition of complement-mediated lysis of sensitized CHO cells by soluble protein in normal human serum (fold of wt CR2-CD59)", "value": 3}]}
